Assay [1] has as its target T1, FAS-IC (Homo sapiens, UniProt P25445).
T1 construct: the FAS-IC extends-from amino acid residues 175-319 of the intact FAS-R; expressed in transfected cells; host or cells: SFY526 yeast
T1 sequence (P25445 191-335): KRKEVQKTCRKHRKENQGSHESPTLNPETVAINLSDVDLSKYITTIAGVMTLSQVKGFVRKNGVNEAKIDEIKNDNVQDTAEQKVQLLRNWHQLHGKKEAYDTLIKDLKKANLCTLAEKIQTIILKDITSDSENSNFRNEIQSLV
Description: Two-hybrid test of MORT-1 binding (FIG. 1), human Fas-IC. The settings on record: transfected SFY526 yeasts. The text has this:
To isolate proteins interacting with the intracellular domain of the FAS-R, the yeast two-hybrid system was used (Fields and Song, 1989). […] In this system, the genes for the candidate interacting proteins are cloned into separate expression vectors. In one expression vector, the sequence of the one candidate protein is cloned in phase with the sequence of the GAL4 DNA-binding domain to generate a hybrid protein with the GAL4 DNA-binding-domain, and in the other vector, the sequence of the second candidate protein is cloned in phase with the sequence of the GAL4 activation domain to generate a hybrid protein with the GAL4-activation domain. The two hybrid vectors are then co-transformed into a yeast host strain having a lacZ or HIS3 reporter gene under the control of upstream GAL4 binding sites. Only those transformed host cells (cotransformants) in which the two hybrid proteins are expressed and are capable of interacting with each other, will be capable of expressing the reporter gene. In the case of the lacZ reporter gene, host cells expressing this gene will become blue in color when X-gal is added to the cultures. […]
In FIG. 1, there is depicted the interaction of the proteins encoded by the Gal4 DNA binding domain and activation-domain constructs (pGBT9 and pGAD-GH) within transfected SFY526 yeasts as assessed by β-galactosidase expression filter assay. […]

In assay [2] the target is T2, GST-MORT-1 fusion protein (Homo sapiens, UniProt Q13158).
T2 construct: made in house
T2 sequence (Q13158 1-208): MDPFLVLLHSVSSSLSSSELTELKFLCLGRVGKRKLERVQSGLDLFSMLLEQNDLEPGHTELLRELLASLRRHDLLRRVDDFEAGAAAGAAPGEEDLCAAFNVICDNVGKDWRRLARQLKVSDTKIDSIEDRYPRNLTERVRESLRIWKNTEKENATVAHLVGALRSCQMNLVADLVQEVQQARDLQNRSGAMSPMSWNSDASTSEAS
Briefly: In vitro binding to GST-MORT-1 on glutathione-agarose beads. The text has this:
It has been shown also to contribute to, though not to suffice in, the self association of MORT-1 (see Example 1). […] To further assess the involvement of the MORT modules in these interactions, deletion mutants of MACHβ1, fused with the FLAG octapeptide (FLAG-MACHβ1), were expressed in HeLa cells and assessed for their binding in vitro to bacterial-produced […] fusion protein (GST-MORT-1). […] FIGS. 9A and 9B show the results (autoradiograms) of the in vitro interaction of MACHβ1 and its deletion mutants with MORT-1. Briefly, 35 [S] metabolically labeled MACHβ1, MACHβ1 fused at its N-terminus to the FLAG octapeptide (FLAG-MACHβ1), C-terminus truncation mutants of FLAG-MACHβ1, and, as a control, luciferase, were produced in transfected HeLa cells. Expression was done using a tetracycline-controlled expression vector, in a HeLa cell clone (HtTA-1) that expresses a tetracycline-controlled transactivator.
The antibodies used are as follows: Rabbit anti-MACHβ1 and anti-MORT1 antisera were raised against GST-MACHβ1 and GST-MORT1 fusion proteins. Mouse monoclonal antibodies against the FLAG octapeptide (M2) and against FAS/APO1 (CH11, Yonehara et al, 1989) were purchased from Eastman Kodak and Oncor (Gaithersburg, Md.) respectively. […]

B1: MORT-1: Mediator of Receptor-induced Toxicity; protein binding the intracellular domain of FAS-R, SEQ ID NO:2 (protein)
chain: VNQAPECRFGGGILGPLGKRRDLARASEPRTEGARRAGPQPRPLADPAMDPFLVLLHSVSSSLSSSELTELKFLCLGRVVKRKLERVQSGLDLFSMLLEQNDLEPGHTELLRELLASLRRHDLLRRVDDFEAGAAAGAAPGEEDLCAAFNVICDNVGKDWRRLARQLKVSDTKIDSIEDRYPRNLTERVRESLRIWKNTEKENATVAHLVGALRSCQMNLVADLVQEVQQARDLQNRSGAMSPMSWNSDASTSEAS
B1: the “binding to human Fas-IC in two-hybrid test” value in assay [1] is reported as “binds”.

B2: MACHβ1: MACH isoform, cDNA SEQ ID NO: 4, amino acid SEQ ID NO: 5; lacks the CED3/ICE homology region (protein)
chain: MDFSRNLYDIGEQLDSEDLASLKFLSLDYIPQRKQEPIKDALMLFQRLQEKRMLEESNLSFLKELLFRINRLDLLITYLNTRKEEMERELQTPGRAQISAYRVMLYQISEEVSRSELRSFKFLLQEEISKCKLDDDMNLLDIFIEMEKRVILGEGKLDILKRVCAQINKSLLKIINDYEEFSKERSSSLEGSPDEFSNDFGQSLPNEKQTSGILSDHQQSQFCKSTGESAQTSQH
Take B2: the “in vitro binding to GST-MORT-1 fusion protein” value in assay [2] was “able to bind”.

The values are drawn from patent US7799901B2, “Modulators of the function of FAS receptors and other proteins” (Yeda Research and Development Co. Ltd., priority 1995, dated 2010).
